Measurements published in the DeepSol protein solubility set.

Assay: soluble on expression in E. coli; label from the status in PepcDB or PDB records

Sequence | soluble on expression in E. coli
MGTICDAASPTFMLQHWVRDRRRGSRISLEHAIKRQCHDTARLYGLDDRGVIAPGYLADINVIDFDRVRLLKPWLAFDLPAGGKRLLQKAEGYDYTIKGGKVTFRNGEWTGATPGNLIRGPQRADLMEAAELEHHHHHH | not soluble
MASTKSELIERLATQQSHIPAKTVEDAVKEMLEHMASTLAQGGSGGLTKAEMSEYLFDKLGLSKRDAKELVELFFEEIRRALENGEQVELSGFGNFDLRDKNQRPGRNPKTGEDIPITARRVVTFRPGQKLKSRVENAGGGERIEIRGFGSFSLHYRAPRTGRNPKTGDKVELEGKYVPHFKPGKELRDRANIYGGSGHHHHHH | soluble
MKIAGLKQLNTALKEAASGGFSRQASRWLEECGQDFLEIVQSELISTQTIDTEKLLSSFEKGAEDNLWIVQSGGLSLEVGTQLDYASFLNDGHWTSKQDVRWVPGRFQGSRFIYDPAASTGMALKRKWIPGTGYWDHALLLYEQLFEKSLESKLRQWLKKLLEHHHHHH | soluble
MATDQKRGLLIVFEGLDRSGKSTQAKRLVESINKKSTESGDASSSPSAVLQAFPDRSSSIGKLIDQYLRKEIDMDEHALHLLFSADRFSKNQMIRDNIAKGIDVICDRYCYSGVAYSLAKGLPEQWVRSSDVGLPKPDAVLFFDVSPEVAAQRGGFGEERLETATIQQKVAAVMPTLRDDAYWKTVNADGDLDSVEKNVFRIYENLDREKPFESLEKI | not soluble
MESELIFHEGGCHCGKIKWRVKAARSVIAWSCNCSDCSMRGNVHFIVPSSNFELLDDSKDFITTYTFGTHTAKHTFCKVCGITSFYIPRSNPDGVAVTVKCVKSGTLAHIEVKSYDGQNWEMSHKKTGIASFSKE | soluble
MRVIVTEYQPAWVEQFEEEAQALKQILKENCLKVEHIGSTSVPNLAAKPIIDFLVIVEEIEKVDLLQWEFERIGYEYMGEFGLSGRRYLRKGPIKRTHHVHIYQFDNTQEILRHLAFRNYLRENPAIATTYGTLKKQLAQAHPDSIDKYMDGKDAFIKKIEKEALKKYWEK | not soluble
MSSGDQKVKEMFIEQGLHVDWLVRAHTVNSIEGLVYLSEQRHKWAEADQKVIFRILQDYKNSDGELLPEHNPAAPINRKRGTLKTELETFYDVPQVRTLTCELLDMVKEEPSIWDKIRCVDFGCHQRMRQAWCSISLKLGGWGAIQHVHMLKQLYRKKRDLYNVQYLRSGREFEYCEKLSFLKDVLEMAKNDPLDKNIQLDEHLKTATPIIDFDAELLAAPAEIQQILREISEKIDKVTTSQSPGFLAEYLATCCNEVVKHRETLATAGLGDDFN | not soluble
MGAGMLGNINDIDLRMLRTFCAIVEAGGFTAAQARLNTSLSRLSVLVRDLEVRLGYSLCRRGNGGFQLTEEGQELYDAALGLFSDIARFREQVRGLGGRDREALHLGCVDGVIGQHCLPLPLAIRLFRQRAPEVLLKLHTRRPDELEHAVLEERLQLAVGAFHHRLSGLYYQPLFREEQNLYCGSAHPFFARADDEPTLGEICAADYVGRGYMAENHRPHDLRFNQGTDAYTMEAIATLVFSGTYIGYLPTHYAATWVAEGRMRAIRPRQLAYDSEFHCITRQGHEERPTLTLFLRSLFEAQKQLGVQVPANTNGIARQL | not soluble
TEHLTLAFKIERPYDKVLKTISKKNLKNYIKETFNFFKSGYMKQNYLGSENDVIELDDVANIMFYGEGEVGDNHQKFMLIFDTGSANLWVPSKKCNSSGCSIKNLYDSSKSKSYEKDGTKVDITYGSGTVKGFFSKDLVTLGHLSMPYKFIEVTDTDDLEPIYSSVEFDGILGLGWKDLSIGSIDPIVVELKNQNKIDNALFTFYLPVHDVHAGYLTIGGIEEKFYEGNITYEKLNHDLYWQIDLDVHFGKQTMEKANVIVDSGTTTITAPSEFLNKFFANLNVIKVPFLPFYVTTCDNKEMPTLEFKSANNTYTLEPEYYMNPILEVDDTLCMITMLPVDIDSNTFILGDPFMRKYFTVFDYDKESVGFAIAKN | soluble
MSLKRIVVANDLVGVGKVALSASIPLMASCLLEQVLLPTCLLSSHTGGGQNPVKHTTSSILDVFLTDWDNKRIKFDGIFIGYFTTTRDGQKLLEWLSRKQLPLILDPIMADNGKLYQGFSQKHIEIMIKLTQKAELVLPNISEACLLTQTAYLAKNYDEEDIRQVARKLAKLGPKQVVISGISFEEGSIGFAYYQSDSDQLTFHFGKQFPYHFYGTGDIASAIITAGFYYQLPLTQILDLVVSFLEKVLQNTLTLKRDLILGVAYESHLNYLTEGHHHHHH | not soluble
MRTSDSHLPLSNLARSDSIEFKDAVINEKWVHSANRRKGHLTPKAPEKKSGWFGGQKSEEELLMERVEQHELEELQTFIAQKLFRVDGIICDEETRILLVEKLMNAKEYPTINHDELAHRYGSSMAGWLRDRLVPSMSDCSSVLQRAAAEFYQNKMSDPLCNWGQLNPEHVSMVAARIAKFSEEMSSKVKWSLLVEPGKFSCHLTEFVQEFNRLDRMFVSNELSDEESLQTAFNANYLTKARSKMVPCAEFSRVKLNDGLGRLDDRNELRNGMFSDEHEFLQEEGYTAKSTYGTTDFIHANYVKGGPLLNTFICAQAPLKNTQEDFWRMVFQEKCQFIVMLNSAVDSSTLGPLDSANRNHCPYYWPRAENESLRFGSFHITCMKVDSKADPLFTITKLKVQKVGGNLLDAEFDEELFLEHWQWDWQYLGDVHWPFRVLRKARQLSTPTIVQCIDGCSKSGTLVSIETALMHFIRGSPITKSLILQSCVFVRLQRRLSVSSVLLYLFIYRVILRWIEPYVNKWYHRAALGLRFKSIGFIQKYNAMIQEFSRITPAY | not soluble
SERCDDWGLDTMRQIQVFEDEPARIKCPLFEHFLKFNYSTAHSAGLTLIWYWTRQDRDLEEPINFRLPENRISKEKDVLWFRPTLLNDTGNYTCMLRNTTYCSKVAFPLEVVQKDSCFNSPMKLPVHKLYIEYGIQRITCPNVDGYFPSSVKPTITWYMGCYKIQNFNNVIPEGMNLSFLIALISNNGNYTCVVTYPENGRTFHLTRTLTVKVVGSPKNAVPPVIHSPNDHVVYEKEPGEELLIPCTVYFSFLMDSRNEVWWTIDGKKPDDITIDVTINESISHSRTEDETRTQILSIKKVTSEDLKRSYVCHARSAKGEVAKAAKVKQKGNRCGQ | soluble
METTVMPAAASVQKQQGLNQVVINKVQRMIESRQGGVMDTINRLLSEGRIAQDFIAPIGVSQRSKERPVISFKAEGRVQMAMPEGNFNLHGNAISQISEKMGIPAKYLRELSAGDVWQKQLCATILNEHSGWTERTRVLIRAVGMEVRGVLSDSYRRLNSVDILTAFIREAGGQGAVVSDAYMNDTKVWCETILPTPIEIPTRKNGTVIIFAGARFSTSDYGNGSVEMRSFLLNGACLNGMVRESVMRQIHLGGRLPESLSLSQKTYELDTQTTVSAVSDLTKGLYSKDTIMQKAIEIQGASEIDVDFDKELKNLVQKGALLKNEGREVEKLLMNNNPDDGVTGGATLWKLTQGITAFAREQQPERCRELHEISGQLMNRVKIN | not soluble
MSLNHILETLIKLLKVGMEAIDRKGLIAILTSSIGNDEMDDSEQAVMVYNELIDKLQLNIPKDVDYRPNIYSYFGIQKKPNDTILVEMMISIFHIKRFDSELFVFKDKGWQKVNEDELQGLISKMIQVLLVDYKPSLSILKNVVVGLQNSIDVEELVENKQYIGCGHNMFNLDAFEVVGNSIKIFPATRLNLELVKSDVITEKTPPHFNRYMLEFANFDSDLQYFLFQHIAVLLTANTKYRRALLLYGGAKNGKSVFINLVRSFFYSEDIVSKALNELQGRFDKESLVGKKLMASDEIGESRIQEKIVNDLKKLVSVEPVHVDRKGKTQVETTLDLKLAFGTNARLNFPSAHAKALERRIAVIPCEYYVEKADPDLIEKLQDEKKEIFLYLMYVYKQIVKNDIEYLQNDRVTEISHDWLNFGYEFVSSKSASIANQKACINLLRKLIEIKPGSRIKVSELNKVINEEIKVSSQVIKQLIQANFDTQTKLYNGYDYWIDLGWKEADKKEIHDISKKDNIISLDKNENITDDETLDEENLDFDWEDFDDEGHHHHHH | soluble
RLQPIIVPGWQGSGPGHWQTHWSRTLPHAVRLQQRDWHQPQRAEWVAALAAAVDAAPTPVLLVAHSLGCLVSAALPIALRAKVAGALLVAPADVERPGAPAAIAAFGPVPRQSLPYQSVVIASDDDPYCRLERARQFAQDWGSRLVVLQGAGHINADSQLGAWPQGLKQLAALRRRACW | not soluble
MSQARPATVLGAMEMGRRMDVTSSSASVRAFLQRGHTEIDTAFVYANGQSETILGDLGLGLGRSGCKVKIATKAAPMFGKTLKPADVRFQLETSLKRLQCPRVDLFYLHFPDHGTPIEETLQACHQLHQEGKFVELGLSNYVSWEVAEICTLCKKNGWIMPTVYQGMYNAITRQVETELFPCLRHFGLRFYAFNPLAGGLLTGRYKYQDKDGKNPESRFFGNPFSQLYMDRDWKEEHFNGIALVEKALKTTYGPTAPSMISAAVRWMYHHSQLKGTQGDAVILGMSSLEQLEQNLALVEEGPLEPAVVDAFDQAWNLVAHECPNYFR | soluble
AQQGVFTLPARINFGVTVLVNSAATQHVEIFVDNEPRAAFSGVGTGDNNLGTKVINSGSGNVRVQITANGRQSDLVSSQLVLANKLNLAVVGSEDGTDMDYNDSIVILNWPLG | soluble
DIQMTQSPSTLSASIGDRVTITCRASEGIYHWLAWYQQKPGKAPKLLIYKASSLASGAPSRFSGSGSGTDFTLTISSLQPDDFATYYCQQYSNYPLTFGGGTKLEIKRTVAAPSVFIFPPSDEQLKSGTASVVCLLNNFYPREAKVQWKVDNALQSGNSQESVTEQDSKDSTYSLSSTLTLSKADYEKHKVYACEVTHQGLSSPVTKS | soluble
MGSDKIHHHHHHMRNVKIDEVDRLDRDVVALGNDYAQGFILPPHQHRRAQLLYGATGLMYVTTQDGEWVVPPQHAVWIPPETVHAVRFAGVTTRSLYIEPDCVAAFIKHRRCEVISVSPLLRQLLLEAVDLPPLYDSPRDRALIQLMLLELAAMPVREFDIPLPQHPALLALCQAFLLNPSIHDPAARWARALFMSPSTFRRHFLKQLGLSFSAWRQRACVVSALAWLIAGKPVNEVALSLGYDNASSFATMFRRVTGQPPSFYHPA | not soluble
MMKRQTWPEPTIPVSQQFARGNFPVGIICEHPGEVNAYRYSSEEKRAMEHATEEQVQDLRCAAEVHRQVRRYAQSFIKPGISLLSMTDRIEKKLEELIEKDGLNRGQAFPTGCSLNHVAAHYTPNTGDKCVLMYDDVMKVDFGTQINGRIIDCAWTVAFKDEYEPLLTAVKEATYEGVKQAGIDVRLCDVGAAIQEVMESYEVELNGKVYPVKSIRNLSGHTIAPYVIHGGKSVPIVRGGEATRMEEGELFAIETFGSTGRGFVQEDMECSHYMMVPGGEKTQVRSDKAQQLLRHIHKTYNTLAFARKWLDRDGHDRHLLNLNQLVEAGAVNKYPPLCDIRGCYTAQLEHTLILKPTAKEILSKGDDY | not soluble
MGSDKIHHHHHHMSASSNRTIPVFQLYGETHQWPTPDLLHCESIAERSRLHDWHIRPHRHADLVHVLHIAHGDVNLTFEEGAQRLTGPLLIVVPAMTVHAFRFSRDVDGHIVTLAMPLARHIADTLHPQGQILARAAFYPLADQPERAPIATLVDQLDAEYRHPADGRDALLEALLNSLLVLASRRATRRQARPASRQHERGEAHLARFQQLIEAHYHQQPSIPEFAERLGISSAHLSAVCQRLAGRSAQQLLHERVLLEAKRHLTYTNMTIGQVAERLGFKEPAYFTRFFKRHVACSPKEFRQRQA | not soluble
